Tests used:
[1] = Bevacizumab pharmacokinetics, plasma concentration after single 100 mg dose IV or SC; format: in vivo; conditions: female Gottingen minipigs, mean
[2] = IV product; cited from earlier work
[3] = single dose, plasma, uncorrected

| Substance | AUC336/D ([1]; dose-corrected) [kg·µg·h/mL/mg] | AUClast/D ([1]; dose-corrected) [kg·µg·h/mL/mg] | AUC∞/D ([1]; dose-corrected) [kg·µg·h/mL/mg] | Cmax/D ([1]; dose-corrected) [kg·µg/mL/mg] | T1/2 ([1]; single dose, plasma) [h] | AUC336 [1, 3] [µg·h/mL] | AUClast [1, 3] [µg·h/mL] | AUC∞ [1, 3] [µg·h/mL] | Cmax [1, 3] [µg/mL] | average clearance rate [2] | half-life [2] |
| --- | --- | --- | --- | --- | --- | --- | --- | --- | --- | --- | --- |
| Avastin ® | 3084 | 5215 | 5357 | 24.7 | 227 | 28380 | 47990 | 49271 | 230 |  |  |
| bevacizumab: human monoclonal antibody that binds Vascular Endothelial Growth Factor (VEGF), commercialized under the AVASTIN® brand |  |  |  |  |  |  |  |  |  | about 0.262 L/day | about 20 days |
